According to patent US20040106173A1, “Bot1: target for antifungal agents” (The University of Miami, priority 2001, published 2004):

T1: HA-tagged Tea1p (nmt1-HA3tea1) (Schizosaccharomyces pombe, UniProt P87061 1-1147)
T1 construct: also called HA-Tea1p
T1 sequence (looked up): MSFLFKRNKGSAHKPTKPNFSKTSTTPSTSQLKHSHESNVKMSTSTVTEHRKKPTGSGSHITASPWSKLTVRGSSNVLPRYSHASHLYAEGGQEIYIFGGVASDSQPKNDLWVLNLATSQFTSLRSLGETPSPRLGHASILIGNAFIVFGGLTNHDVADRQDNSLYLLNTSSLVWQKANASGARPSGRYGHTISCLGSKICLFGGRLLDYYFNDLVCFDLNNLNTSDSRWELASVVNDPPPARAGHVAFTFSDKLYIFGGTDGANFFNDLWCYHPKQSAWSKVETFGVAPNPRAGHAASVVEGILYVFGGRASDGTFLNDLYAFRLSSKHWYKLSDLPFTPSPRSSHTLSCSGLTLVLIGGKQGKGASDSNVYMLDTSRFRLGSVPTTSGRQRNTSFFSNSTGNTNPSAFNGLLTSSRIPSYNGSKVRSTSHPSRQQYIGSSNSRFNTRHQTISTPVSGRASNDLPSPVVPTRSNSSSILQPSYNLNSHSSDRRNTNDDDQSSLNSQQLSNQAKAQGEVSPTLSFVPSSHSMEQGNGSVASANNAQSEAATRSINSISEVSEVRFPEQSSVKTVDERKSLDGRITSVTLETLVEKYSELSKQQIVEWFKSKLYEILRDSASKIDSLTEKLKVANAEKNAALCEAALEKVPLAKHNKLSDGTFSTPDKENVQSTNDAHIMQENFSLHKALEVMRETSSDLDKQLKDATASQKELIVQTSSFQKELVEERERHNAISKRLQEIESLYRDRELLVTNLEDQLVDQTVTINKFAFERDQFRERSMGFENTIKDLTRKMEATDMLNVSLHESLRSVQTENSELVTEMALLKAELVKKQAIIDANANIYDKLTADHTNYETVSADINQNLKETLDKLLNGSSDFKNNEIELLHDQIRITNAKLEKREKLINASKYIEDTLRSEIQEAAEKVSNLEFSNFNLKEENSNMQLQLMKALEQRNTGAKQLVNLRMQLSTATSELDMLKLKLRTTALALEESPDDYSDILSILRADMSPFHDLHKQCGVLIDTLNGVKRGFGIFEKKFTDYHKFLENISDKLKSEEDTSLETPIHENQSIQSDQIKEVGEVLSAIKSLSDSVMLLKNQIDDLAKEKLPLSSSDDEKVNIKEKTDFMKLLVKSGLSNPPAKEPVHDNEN

T2: HA-tagged Cdc23p (pRep41-HA3cdc23) (fission yeast, UniProt O42709 1-593)
T2 construct: also called HA-Cdc23p; HA-Cdc23
T2 sequence (looked up): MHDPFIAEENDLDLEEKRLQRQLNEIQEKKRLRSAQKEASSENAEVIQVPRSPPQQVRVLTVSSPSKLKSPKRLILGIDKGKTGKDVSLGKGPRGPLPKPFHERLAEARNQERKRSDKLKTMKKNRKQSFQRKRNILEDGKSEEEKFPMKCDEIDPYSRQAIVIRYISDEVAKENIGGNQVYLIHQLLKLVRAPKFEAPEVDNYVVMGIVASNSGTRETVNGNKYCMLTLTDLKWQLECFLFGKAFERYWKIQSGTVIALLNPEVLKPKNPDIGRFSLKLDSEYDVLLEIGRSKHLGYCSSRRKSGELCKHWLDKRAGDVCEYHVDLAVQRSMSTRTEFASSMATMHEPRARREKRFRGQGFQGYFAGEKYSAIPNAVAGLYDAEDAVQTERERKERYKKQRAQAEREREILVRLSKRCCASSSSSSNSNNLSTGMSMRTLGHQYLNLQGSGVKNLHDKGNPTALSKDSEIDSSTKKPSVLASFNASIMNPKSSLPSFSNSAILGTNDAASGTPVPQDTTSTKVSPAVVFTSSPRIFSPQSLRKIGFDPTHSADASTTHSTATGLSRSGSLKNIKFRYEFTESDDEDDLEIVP

T3: HA-tagged Bot1p (HA3-bot1, pRep41-HA3bot1)
T3 chain: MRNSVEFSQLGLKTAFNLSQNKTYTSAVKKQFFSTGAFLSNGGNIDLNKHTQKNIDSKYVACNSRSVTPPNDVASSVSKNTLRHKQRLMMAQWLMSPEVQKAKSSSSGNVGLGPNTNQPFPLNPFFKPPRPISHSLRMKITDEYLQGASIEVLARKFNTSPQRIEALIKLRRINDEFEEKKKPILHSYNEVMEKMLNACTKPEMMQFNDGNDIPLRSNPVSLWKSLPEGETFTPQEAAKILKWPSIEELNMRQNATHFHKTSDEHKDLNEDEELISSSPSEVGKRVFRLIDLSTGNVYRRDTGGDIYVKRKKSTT

B1: GAL4 activation domain fused to SNF4p (pSE1111, pACT-SNF4) (other, UniProt P12904 1-322, looked up, not shown: large carriers)
chain: MKPTQDSQEKVSIEQQLAVESIRKFLNSKTSYDVLPVSYRLIVLDTSLLVKKSLNVLLQNSIVSAPLWDSKTSRFAGLLTTTDFINVIQYYFSNPDKFELVDKLQLDGLKDIERALGVDQLDTASIHPSRPLFEACLKMLESRSGRIPLIDQDEETHREIVVSVLTQYRILKFVALNCRETHFLKIPIGDLNIITQDNMKSCQMTTPVIDVIQMLTQGRVSSVPIIDENGYLINVYEAYDVLGLIKGGIYNDLSLSVGEALMRRSDDFEGVYTCTKNDKLSTIMDNIRKARVHRFFVVDDVGRLVGVLTLSDILKYILLGSN
B2: GST-tagged Orb6p expressed in fission yeast (pESP-GSTOrb6+) (enzyme, Schizosaccharomyces pombe, UniProt O13310 1-469, looked up, not shown: a dimerising Fc or GST)
chain: MDKNDYLHFERNPSLFPKSTLDKVQKTKKYIEHYYKVAVDHAVERNQRRINLEQRLATERGSEERKNRQLRASGEKESQFLRFRRTRLSLEDFSTIKVIGKGAFGEVRLVQKLDTGKIYAMKSLLKTEMFKRDQLAHVKAERDLLVESDSPWVVSLYYAFQDSLYLYLIMEFLPGGDLMTMLINYDTFSEDVTRFYMAECVLAIADVHRMGYIHRDIKPDNILIDRDGHIKLSDFGLSTGFYKQDQSASYMKPRTGNTVKRGQMVDAIWLTMSSKDKMATWKKNRRVMAYSTVGTPDYIAPEIFLQQGYGQDCDWWSLGAIMFECLIGWPPFCSENSHETYRKIINWRETLTFPNDIHLSIEARDLMDRLMTDSEHRLGRGGAIEIMQHPFFTGIDWDHIRETAAPFIPNLKSITDTHYFPVDELEQVPEQPVTQQPASVDPQTLEQTNLAFLGYTYKKFNYLTMKGAL
notes: also called GST-Orb6p
B3: GAL4 activation domain (GAD) alone (other, UniProt P04386 768-881, looked up)
chain: ANFNQSGNIADSSLSFTFTNSSNGPNLITTQTNSQALSQPIASSNVHDNFMNNEITASKIDDGNNSKPLSPGWTDQTAYNAFGITTGMFNTTTMDDVYNYLFDDEDTPPNPKKE
notes: Two-hybrid negative control

What was measured:
[1] = target: Tea1p fused to the DNA binding domain of GAL4 (pAS1) (Schizosaccharomyces pombe, UniProt P04386 1-147; P87061 1-1147); experiment: yeast two-hybrid (HIS3 and LACZ reporters)
Source text: (§1) The tea1 gene was fused to the DNA binding domain of GAL4 in a plasmid (pAS1) carrying the trp1 marker. The orb6 gene was fused to the DNA binding domain of GAL4 (pAS1-orb6) and to the GAL4 activator domain (pACT2-orb6). The cDNA library was cloned to the transcription activator domain of GAL4 in a plasmid (pACT) carrying the leu2 marker. Plasmids pAS1, pACT2, pSE1111 (pACT-SNF4), pSE1112 (pAS1-SNF1), pAS1-p53, pAS1-lamin and the S. pombe library prepared in phage λ vectors and plasmids pAS1-SNF1 and pAS1-lamin, both harbored in Y187 strain, were kindly provided by Dr. S. Elledge. The test for cell growth on medium lacking histidine, the beta-galactosidase activation assay and the mating test to detect interaction specificity were performed as described (14). After screening 2×10⁶ transformants, we found five proteins that interact with Orb6p and four that interact with Tea1p in this system, and that were identified multiple times in the screen. Clones containing bot1+ were isolated 22 times in the Orb6p screen and eight times in the Tea1p screen. All clones contained the full-length bot1 sequence, although they usually lacked the initial ATG codon. For beta-galactosidase activation, three independent transformants were assayed for each condition.
(§2) To identify novel components of the Orb6p pathway, a two-hybrid screen was performed to identify cDNAs encoding proteins that interact with Orb6p. One of these, isolated 22 times in this screen, was a novel protein that we named Bot1p. […] The specificity of the positive interaction between Orb6p and Bot1p in the two-hybrid system was controlled by cotransformation of pAS1-orb6 and pACT-bot1 independently with a number of control plasmids. Co-expression of SNF1p or SNF4p was used as positive controls. Orb6p was unable to support the activation of the LACZ-GAL4 and HIS3-GAL4 promoters when co-expressed with GAL4 activation domain fused to SNF4p, or with the GAL4 activation domain (GAD) alone. Bot1p was unable to support the activation of the LACZ-GAL4 and HIS3-GAL4 promoters when co-expressed with the GAL4 binding domain fused to p53, Cdc23p, GAL4 DNA binding domain (GBD) alone, or fused to SNF1p or Cdt1p.

[2] = target: T4, Orb6p fused to the DNA binding domain of GAL4 (pAS1-orb6) (Schizosaccharomyces pombe, UniProt P04386 1-147; O13310 1-469, limits assumed); experiment: LACZ-GAL4 reporter in strain BY3161, control of the three-hybrid test
[3] = target: T1, HA-tagged Tea1p (nmt1-HA3tea1); experiment: glutathione beads carrying GST-Orb6p with co-purified HA-Bot1p, incubated with an extract containing HA-Tea1p
Protocol: (§3) Immunoblot analysis was performed using standard methodology. For co-purification experiments, ade6-704 ura4-D18 leu1-32 h-cells co-expressing HA-tagged Bot1p and GST-tagged Orb6p (FV17p), or cells co-expressing HA-tagged Bot1p and GST alone (FV16p) as a control were cultured, for 15 hr at 32° C. in the absence of thiamine. HA₃-bot1 was moderately expressed from an attenuated nmt1 promoter (10). GST-tagged fusions were constructed using the pESP plasmid (Qiagen), which also contains a nmt1 promoter. Cells were then re-suspended in HB buffer and broken using a FastPrep FP120 bead beater (Savant). Extracts were spun at 15K rpm for 15 min. GST-tagged Orb6 or GST alone was purified using glutathione beads (Molecular Probes).
Glutathione beads were washed three times in HB buffer and then eluted. The eluate was run on a 10% polyacrylamide gel, blotted on nitrocellulose, and probed with a primary anti-HA antibody (Covance) or, separately, with a primary anti-GST antibody (Molecular Probes) and with a horseradish peroxidase-conjugated secondary antibody (ECL, Amersham).
To investigate whether Bot1p is able to form a complex with Tea1p and Orb6p, we determined if these proteins co-immunoprecipitate in cell extracts, if they interact in the yeast two-hybrid system, and if they are able to associate in vitro. […]

[4] = target: T2, HA-tagged Cdc23p (pRep41-HA3cdc23); experiment: co-purification on glutathione resin from fission yeast extracts, co-expressed
Protocol: as §3
Glutathione beads were washed three times in HB buffer and then eluted. […]
To confirm this interaction between Bot1p and Orb6p in fission yeast extracts, HA-Bot1p and GST-Orb6p were co-expressed in fission yeast cells, and GST-Orb6p was purified using glutathione-coupled resin. […] Furthermore, neither GST nor GST-Orb6p co-purified with HA-tagged Cdc23p, when co-expressed as an additional control for specificity.

[5] = target: T3, HA-tagged Bot1p (HA3-bot1, …)
[6] = target: T4, Orb6p fused to the DNA binding domain …; experiment: yeast two-hybrid (HIS3 and LACZ reporters)
Source text: as §1, §2

Row | Binder | binding result [1] | binding result [2] | binding result [3] | binding result [4] | GST-Orb6p autophosphorylation (in vitro protein kinase activity) [5] | in vitro phosphorylation of Bot1p by Orb6p [5] | binding result [6]
1 | B1 | no binding | no binding | – | – | – | – | –
2 | B2 | – | – | no binding | no binding | The level of GST-Orb6p autophosphorylation was the same for proteins isolated from control and Bot1p-overexpressing cells | Orb6p-associated Bot1p was not phosphorylated in vitro by Orb6p | –
3 | B3 | no binding | – | – | – | – | – | no binding
